# Source: patent US20050074865A1
# Biological target: recombinant human TNFα (RDI) (human) (UniProt P01375)
# Experiment: cell-based or functional assay
# Chain of recombinant human TNFα (RDI) (human) (P01375 77-233 limits assumed): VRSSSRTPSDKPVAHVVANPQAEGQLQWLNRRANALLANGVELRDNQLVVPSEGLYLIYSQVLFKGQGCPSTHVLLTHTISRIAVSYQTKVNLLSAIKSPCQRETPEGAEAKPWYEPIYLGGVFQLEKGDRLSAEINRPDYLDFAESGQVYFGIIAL
# Chain of TRYPSIN (commercial protease of the screen) (enzyme) (P00760 24-246): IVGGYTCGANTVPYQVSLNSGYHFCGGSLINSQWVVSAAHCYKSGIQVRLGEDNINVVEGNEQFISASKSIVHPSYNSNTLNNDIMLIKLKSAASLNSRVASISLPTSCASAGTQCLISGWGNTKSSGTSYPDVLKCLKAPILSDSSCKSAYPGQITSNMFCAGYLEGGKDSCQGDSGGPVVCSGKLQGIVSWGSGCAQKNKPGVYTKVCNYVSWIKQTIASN
# Chain of MMP12 (enzyme) (P39900 106-470): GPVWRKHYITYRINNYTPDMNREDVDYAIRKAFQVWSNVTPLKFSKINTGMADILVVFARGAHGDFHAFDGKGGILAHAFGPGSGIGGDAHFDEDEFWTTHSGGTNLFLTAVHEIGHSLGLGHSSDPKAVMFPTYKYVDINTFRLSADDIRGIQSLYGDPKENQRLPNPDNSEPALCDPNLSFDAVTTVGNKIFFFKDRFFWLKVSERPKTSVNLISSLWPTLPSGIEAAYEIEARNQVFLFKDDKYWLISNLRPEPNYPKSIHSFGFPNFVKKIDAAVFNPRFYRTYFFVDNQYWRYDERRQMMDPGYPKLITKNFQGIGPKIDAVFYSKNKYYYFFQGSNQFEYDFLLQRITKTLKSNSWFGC
row,Substance,"log reduction in TNFα activity at the 50% survival level, L929 cytotoxicity bioassay after overnight digestion [log]"
1,MMP12 (enzyme),0.65
2,MT1-MMP (enzyme),0.86
3,CHYMOTRYPSIN (enzyme),2.74
4,ELASTASE (enzyme),1.45
5,TRYPSIN (commercial protease of the screen) (enzyme),2.3
6,Tryptase (enzyme),0.62
